B1: SAT2 (parent)
chain: GYGIYYFIYSTWKGRTIYLEDIYV
B2: RHOBTB2 (parent)
chain: LYTGELDENERDLMHIAHIAELLE

Variants of: B1
Assay: protein stability index of a GFP-peptide fusion (GPS, HEK-293T) (PSI 1-6); higher = more stable
Conditions: c terminus: a fixed tail appended
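Further: lentivirally expressed fusions sorted by FACS into six bins by GFP to DsRed ratio, PSI derived from sequencing read proportions per bin multiplied by bin number.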

Protein stability index, by site and new letter:
K13: H 2.87; R 3.04; Y 1.48; S 2.39; T 2.87; I 2.8; E 3.58; P 1.99
Y23: L 1.08; F 2.37; M 2.71; C 2.65; N 3.18; W 2.35; H 3.07; P 2.43
T16: L 3.32; E 2.53; V 3.24; C 2.83; W 2.95; G 3.31; F 3.53; S 3.8; N 1.86; A 3.27; M 3.12
Y6: E 2.64; R 3.12
S10: W 2.26; M 3.91; Y 2.76; P 3.17; C 2.53; N 2.55; E 3.09
Y9: L 2.57; M 3.46; R 3.86; D 3.06; C 2.94; V 1.67; I 1.62; S 1.59; P 2.71
V24: C 3.63; G 2.6; E 2.6; K 3.94; I 1.48; M 1.63; F 2.91; R 2.39; P 2.3
I4: N 3.27; G 1.88; A 3.19; M 3.54; H 2.53; C 3.26; K 2.7
R15: L 3.07; F 4.58; H 2.96; W 3.58; G 2.53; N 2.37; M 3.05; E 3.72; D 2.9; S 2.1; C 3.31
I17: E 2.77; F 3.52; R 1.72; W 2.17; M 1.75; K 3.66; P 2.91; A 3.11; Y 2.1; G 2.82
L19: S 3.57; H 2.98; F 2.37; Y 4; N 1.73; I 4.11
F7: A 2; L 2.92; G 3.36; S 2.8; E 2.37; W 2.65; D 3.03; N 3.37; Q 5.82; K 3.88; P 3.4
G1: F 2.13; L 3.6; H 2.72; C 1.66; Y 3.1; I 1.2
T11: R 2.28; Y 2.83; Q 2.72; N 4.08; H 3.48; W 3.78; A 2.97; D 3.32; M 3.99; F 2.43; I 2.78; C 4.22
Y18: M 2.33; I 1.92; H 2.59; C 1.89; A 1.71; F 3.01; T 2.92; K 1.88
W12: F 2.8; M 4.12; P 2.36; S 4.37; T 2.5; V 3.31; C 2.1
G14: W 2.43; M 1.94; P 2.33; S 2.5; C 5.03; R 3.28; Q 3.24; I 2.04; Y 3.58; V 5.04
E20: H 2.91; M 4.05; S 3.32; G 2.26; P 2.91; V 3.13; F 2.84; A 3.56; N 4.06; C 3.04; L 2.1; W 2.35; T 2.4
I22: C 2.41; H 2.55; E 2.92; Y 2.09; S 3.3; Q 1.86
G3: F 4.2; E 2.58; Y 2.19; S 3.29; D 2.8; H 2.85; I 1.59; R 2.96; P 2.7
Y2: Q 4.95; F 1.06; C 2.61; N 3.27; R 2.58; M 2.92; V 2.26; H 3.91; S 3.01; D 2.06; I 3.75
D21: P 2.44; A 2.28; L 2.9; K 4.17; T 1.75; N 2.74; R 1.47; E 2.34; C 2.34
Y5: L 2.15; C 2.85; I 2.59; W 2.09; K 2.61; T 2.53; D 2.62; R 2.39; H 2.42; G 3.41
I8: H 2.93; E 3.68; A 1.76; D 3.24; V 2.02; C 1.7; F 3.4; R 3.57

Variants of: B2
Assay: as above
Conditions: c terminus: a fixed tail appended

Protein stability index, by site and new letter:
E21: C 2.37; I 1.77; K 2.07; S 1.7; N 2.48; Q 2.32; F 1.74; G 1.92; D 2.77; V 1.04; P 3.3; M 2.12; Y 1.76; L 1.92; W 2.1; T 1.75; A 1.72; H 1.8; R 1.85
H18: L 1.23; K 3.54; R 2.38; W 2.11; S 3.03; V 2.05; Y 1.59; M 2.71; P 2.88; Q 1.82; T 1.95; N 3.47
A20: T 2.76; K 2.99; F 1.97; P 3.79; W 2.37; E 3.85; R 3.22; S 3.08; H 3.54; I 2.14; N 3.74; V 1.93; G 3.3; L 1.61; C 1.31; M 2.01; Q 3.72; Y 2.53; D 3.34
I19: Y 3.56; R 4.17; N 4.47; P 4.81; G 4.45; H 3.62; K 4.3; E 4.85; C 3.3; S 3.26; V 3.1; M 2.52; W 2.28; A 3.38; D 4.85; T 3.79; F 2.67; Q 3.37; L 2.31
E24: I 2; L 2.18; M 2.17; G 2.85; F 1.79; S 2.22; Q 2.38; R 2.11; Y 2.04; K 2.12; D 2.94; V 1.97; W 1.91; N 2.42; A 3.44; C 2.04; P 3.33; H 2.21; T 2.3
L22: F 3.41; Y 3.03; K 3.67; G 3.6; Q 3.74; N 3.5; T 3; A 2.96; M 2.18; S 3.66; W 2.52; C 2.79; V 2.72; H 3.76; R 3.62; I 2.56; D 4.26; P 4.75; E 4.08
L23: Q 4.41; E 5.05; P 4.28; Y 3.31; K 3.93; C 3.58; I 2.66; M 3.3; G 4.05; W 2.55; V 2.62; A 4.33; H 3.97; F 2.41; S 4.25; D 4.28; N 4.01; R 4.05; T 3.99
